PMC8843743, “Targeting a proteolytic neoepitope on CUB domain containing protein 1 (CDCP1) for RAS-driven cancers” (The Journal of Clinical Investigation, 2022)

Target: T1, NTF of recombinant c-CDCP1 cut 3 (human, UniProt Q9H5V8 30-369)
T1 construct: CUB domain containing protein 1 (CDCP1), human; NTF with the native cut site 3 (proteolysis after K369); NTF (aa 30-369); The NTF alone was also made as NTF-Fc; also called NTF (cut 3); NTF (aa 30-369); source: BirA-Expi293, cotransfected with the CTF plasmid, purified (protein A or Ni-NTA)
T1 sequence (looked up): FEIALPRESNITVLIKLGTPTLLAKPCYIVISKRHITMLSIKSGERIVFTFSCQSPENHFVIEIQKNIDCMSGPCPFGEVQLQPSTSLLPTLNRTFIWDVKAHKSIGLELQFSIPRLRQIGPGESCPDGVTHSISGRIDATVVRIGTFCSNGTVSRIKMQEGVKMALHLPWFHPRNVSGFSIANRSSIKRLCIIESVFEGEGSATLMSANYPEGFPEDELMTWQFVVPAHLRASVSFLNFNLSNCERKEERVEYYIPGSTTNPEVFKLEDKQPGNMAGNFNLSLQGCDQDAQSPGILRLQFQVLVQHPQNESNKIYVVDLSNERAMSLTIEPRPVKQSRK
Experiment: co-purification after co-expression; NTF and CTF ectodomain on separate plasmids cotransfected in BirA-Expi293; protein A or Ni-NTA affinity chromatography; SDS-PAGE
Settings: partners not purified

binding result: binds
B1: CTF ectodomain of recombinant c-CDCP1 cut 3 (domain or fragment, human, UniProt Q9H5V8 370-665, looked up)
chain: FVPGCFVCLESRTCSSNLTLTSGSKHKISFLCDDLTRLWMNVEKTISCTDHRYCQRKSYSLQVPSDILHLPVELHDFSWKLLVPKDRLSLVLVPAQKLQQHTHEKPCNTSFSYLVASAIPSQDLYFGSFCPGGSIKQIQVKQNISVTLRTFAPSFQQEASRQGLTVSFIPYFKEEGVFTVTPDTKSKVYLRTPNWDRGLPSLTSVSWNISVPRDQVACLTFFKERSGVVCQTGRAFMIIQEQRTRAEEIFSLDEDVLPKPSFHHHSFWVNISNCSPTSGKQLDLLFSVTLTPRTVD
notes: CUB domain containing protein 1 (CDCP1), human; CTF ectodomain with the native cut site 3 (proteolysis after K369); CTF (aa 370-665); also called CTF (cut 3); CTF (aa 370-665); source: BirA-Expi293, cotransfected with the NTF plasmid, purified (protein A or Ni-NTA)
